Patent publication US20230137032A1 (GlaxoSmithKline, published 2023)

Experiments:
[1] = molecular target: T1, recombinant human BCMA, in house material (human, UniProt Q02223 4-53, limits assumed); assay: ProteOn SPR run 1, antibody captured on Protein A, 25C
T1 construct: also called Human in house BCMA; In house human BCMA

[2] = molecular target: T2, recombinant cyno BCMA, in house material (cyno, UniProt A0A2K5UD97 4-52); assay: as above
T2 construct: also called Cyno in house BCMA
T2 sequence (A0A2K5UD97 entry or part of it): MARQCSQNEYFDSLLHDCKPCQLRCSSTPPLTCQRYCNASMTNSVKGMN

T1 sequence (Q02223 4-53 limits assumed): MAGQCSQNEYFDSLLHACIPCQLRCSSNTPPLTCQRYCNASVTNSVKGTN

Binder | Kd [1] [pM] | Kd [2] [pM] | binding result [2]
CA8 humanised J0M0 (antibody, human IgG1, kappa, V domains shown, Humanised CA8, heavy chain J0 with light chain M0, human IgG1 kappa; also called CA8 J0M0) VH: QVQLVQSGAEVKKPGSSVKVSCKASGGTFSNYWMHWVRQAPGQGLEWMGATYRGHSDTYYNQKFKGRVTITADKSTSTAYMELSSLRSEDTAVYYCARGAIYNGYDVLDNWGQGTLVTVSS VL: DIQMTQSPSSLSASVGDRVTITCSASQDISNYLNWYQQKPGKAPKLLIYYTSNLHSGVPSRFSGSGSGTDFTLTISSLQPEDFATYYCQQYRKLPWTFGQGTKLEIKR | 435 | 648 | 
S307118G03 humanised H3L1 (antibody, human IgG1, kappa, V domains shown, Humanised, human IgG1 kappa) VH: QVQLVQSGAEVKKPGSSVKVSCKASGYTFTDYYMKWVRQAPGQGLEWIGEIYPNNGGITYNQKFKGRATLTVDKSTSTAYMELSSLRSEDTAVYYCANGYEFVYWGQGTLVTVSS VL: DIQMTQSPSSLSASVGDRVTITCSASQGISNYLNWYQQKPGKAPKLLIYYTSSLHSGVPSRFSGSGSGTDYTLTISSLQPEDFATYYCQQYSKLPWTFGQGTKLEIKR | 4860 |  | no binding
CA8 humanised J4M0 (antibody, human IgG1, kappa, V domains shown, Humanised CA8, heavy chain J4 with light chain M0, human IgG1 kappa; also called CA8 J4M0) VH: QVQLVQSGAEVKKPGSSVKVSCKGSGYTFTNYWMHWVRQAPGQGLEWIGATYRGHSDTYYNQKFKGRATLTADTSTSTAYMELSSLRSEDTAVYYCTRGAIYNGYDVLDNWGQGTLVTVSS VL: DIQMTQSPSSLSASVGDRVTITCSASQDISNYLNWYQQKPGKAPKLLIYYTSNLHSGVPSRFSGSGSGTDFTLTISSLQPEDFATYYCQQYRKLPWTFGQGTKLEIKR | 906 | 866 | 
CA8 humanised J3M0 (antibody, human IgG1, kappa, V domains shown, Humanised CA8, heavy chain J3 with light chain M0, human IgG1 kappa; also called CA8 J3M0) VH: QVQLVQSGAEVKKPGSSVKVSCKGSGYTFTNYWMHWVRQAPGQGLEWMGATYRGHSDTYYNQKFKGRVTITADTSTSTAYMELSSLRSEDTAVYYCTRGAIYNGYDVLDNWGQGTLVTVSS VL: DIQMTQSPSSLSASVGDRVTITCSASQDISNYLNWYQQKPGKAPKLLIYYTSNLHSGVPSRFSGSGSGTDFTLTISSLQPEDFATYYCQQYRKLPWTFGQGTKLEIKR | 1370 | 526 | 
CA8 humanised J5M0 (antibody, human IgG1, kappa, V domains shown, Humanised CA8, heavy chain J5 with light chain M0, human IgG1 kappa; also called CA8 J5M0) VH: QVQLVQSGAEVKKPGSSVKVSCKGSGYTFTNYWMHWVRQAPGQGLEWMGATYRGHSDTYYNQKFKGRVTITADTSTSTAYMELSSLRSEDTAVYYCTRGAIYDGYDVLDNWGQGTLVTVSS VL: DIQMTQSPSSLSASVGDRVTITCSASQDISNYLNWYQQKPGKAPKLLIYYTSNLHSGVPSRFSGSGSGTDFTLTISSLQPEDFATYYCQQYRKLPWTFGQGTKLEIKR | 87 | 25 | 
CA8 humanised J5M2 (antibody, human IgG1, kappa, V domains shown, Humanised CA8, heavy chain J5 with light chain M2, human IgG1 kappa; also called CA8 J5M2) VH: QVQLVQSGAEVKKPGSSVKVSCKGSGYTFTNYWMHWVRQAPGQGLEWMGATYRGHSDTYYNQKFKGRVTITADTSTSTAYMELSSLRSEDTAVYYCTRGAIYDGYDVLDNWGQGTLVTVSS VL: DIQLTQSPSSLSASVGDRVTITCSASQDISNYLNWYQQKPGKAPELVIYYTSNLHSGVPSRFSGSGSGTDYTLTISSLQPEDFATYYCQQYRKLPWTFGQGTKLEIKR | 120 | 109 | 
CA8 humanised J1M1 (antibody, human IgG1, kappa, V domains shown, Humanised CA8, heavy chain J1 with light chain M1, human IgG1 kappa; also called CA8 J1M1) VH: QVQLVQSGAEVKKPGSSVKVSCKASGYTFTNYWMHWVRQAPGQGLEWMGATYRGHSDTYYNQKFKGRVTITADKSTSTAYMELSSLRSEDTAVYYCARGAIYNGYDVLDNWGQGTLVTVSS VL: DIQMTQSPSSLSASVGDRVTITCSASQDISNYLNWYQQKPGKAPKLLIYYTSNLHSGVPSRFSGSGSGTDYTLTISSLQPEDFATYYCQQYRKLPWTFGQGTKLEIKR | 1510 | 442 | 
CA8 humanised J0M2 (antibody, human IgG1, kappa, V domains shown, Humanised CA8, heavy chain J0 with light chain M2, human IgG1 kappa; also called CA8 J0M2) VH: QVQLVQSGAEVKKPGSSVKVSCKASGGTFSNYWMHWVRQAPGQGLEWMGATYRGHSDTYYNQKFKGRVTITADKSTSTAYMELSSLRSEDTAVYYCARGAIYNGYDVLDNWGQGTLVTVSS VL: DIQLTQSPSSLSASVGDRVTITCSASQDISNYLNWYQQKPGKAPELVIYYTSNLHSGVPSRFSGSGSGTDYTLTISSLQPEDFATYYCQQYRKLPWTFGQGTKLEIKR | 310 | 563 | 
CA8 humanised J3M2 (antibody, human IgG1, kappa, V domains shown, Humanised CA8, heavy chain J3 with light chain M2, human IgG1 kappa; also called CA8 J3M2) VH: QVQLVQSGAEVKKPGSSVKVSCKGSGYTFTNYWMHWVRQAPGQGLEWMGATYRGHSDTYYNQKFKGRVTITADTSTSTAYMELSSLRSEDTAVYYCTRGAIYNGYDVLDNWGQGTLVTVSS VL: DIQLTQSPSSLSASVGDRVTITCSASQDISNYLNWYQQKPGKAPELVIYYTSNLHSGVPSRFSGSGSGTDYTLTISSLQPEDFATYYCQQYRKLPWTFGQGTKLEIKR | 362 | 159 | 
CA8 humanised J5M1 (antibody, human IgG1, kappa, V domains shown, Humanised CA8, heavy chain J5 with light chain M1, human IgG1 kappa; also called CA8 J5M1) VH: QVQLVQSGAEVKKPGSSVKVSCKGSGYTFTNYWMHWVRQAPGQGLEWMGATYRGHSDTYYNQKFKGRVTITADTSTSTAYMELSSLRSEDTAVYYCTRGAIYDGYDVLDNWGQGTLVTVSS VL: DIQMTQSPSSLSASVGDRVTITCSASQDISNYLNWYQQKPGKAPKLLIYYTSNLHSGVPSRFSGSGSGTDYTLTISSLQPEDFATYYCQQYRKLPWTFGQGTKLEIKR | 145 | 112 | 
CA8 humanised J4M2 (antibody, human IgG1, kappa, V domains shown, Humanised CA8, heavy chain J4 with light chain M2, human IgG1 kappa; also called CA8 J4M2) VH: QVQLVQSGAEVKKPGSSVKVSCKGSGYTFTNYWMHWVRQAPGQGLEWIGATYRGHSDTYYNQKFKGRATLTADTSTSTAYMELSSLRSEDTAVYYCTRGAIYNGYDVLDNWGQGTLVTVSS VL: DIQLTQSPSSLSASVGDRVTITCSASQDISNYLNWYQQKPGKAPELVIYYTSNLHSGVPSRFSGSGSGTDYTLTISSLQPEDFATYYCQQYRKLPWTFGQGTKLEIKR | 281 | 179 | 
CA8 humanised J2M0 (antibody, human IgG1, kappa, V domains shown, Humanised CA8, heavy chain J2 with light chain M0, human IgG1 kappa; also called CA8 J2M0) VH: QVQLVQSGAEVKKPGSSVKVSCKASGYTFTNYWMHWVRQAPGQGLEWMGATYRGHSDTYYNQKFKGRVTITADKSTSTAYMELSSLRSEDTAVYYCTRGAIYNGYDVLDNWGQGTLVTVSS VL: DIQMTQSPSSLSASVGDRVTITCSASQDISNYLNWYQQKPGKAPKLLIYYTSNLHSGVPSRFSGSGSGTDFTLTISSLQPEDFATYYCQQYRKLPWTFGQGTKLEIKR | 1940 | 538 | 
CA8 humanised J2M2 (antibody, human IgG1, kappa, V domains shown, Humanised CA8, heavy chain J2 with light chain M2, human IgG1 kappa; also called CA8 J2M2) VH: QVQLVQSGAEVKKPGSSVKVSCKASGYTFTNYWMHWVRQAPGQGLEWMGATYRGHSDTYYNQKFKGRVTITADKSTSTAYMELSSLRSEDTAVYYCTRGAIYNGYDVLDNWGQGTLVTVSS VL: DIQLTQSPSSLSASVGDRVTITCSASQDISNYLNWYQQKPGKAPELVIYYTSNLHSGVPSRFSGSGSGTDYTLTISSLQPEDFATYYCQQYRKLPWTFGQGTKLEIKR | 482 | 106 | 
CA8 humanised J2M1 (antibody, human IgG1, kappa, V domains shown, Humanised CA8, heavy chain J2 with light chain M1, human IgG1 kappa; also called CA8 J2M1) VH: QVQLVQSGAEVKKPGSSVKVSCKASGYTFTNYWMHWVRQAPGQGLEWMGATYRGHSDTYYNQKFKGRVTITADKSTSTAYMELSSLRSEDTAVYYCTRGAIYNGYDVLDNWGQGTLVTVSS VL: DIQMTQSPSSLSASVGDRVTITCSASQDISNYLNWYQQKPGKAPKLLIYYTSNLHSGVPSRFSGSGSGTDYTLTISSLQPEDFATYYCQQYRKLPWTFGQGTKLEIKR | 842 | 218 | 
CA8 humanised J0M1 (antibody, human IgG1, kappa, V domains shown, Humanised CA8, heavy chain J0 with light chain M1, human IgG1 kappa; also called CA8 J0M1) VH: QVQLVQSGAEVKKPGSSVKVSCKASGGTFSNYWMHWVRQAPGQGLEWMGATYRGHSDTYYNQKFKGRVTITADKSTSTAYMELSSLRSEDTAVYYCARGAIYNGYDVLDNWGQGTLVTVSS VL: DIQMTQSPSSLSASVGDRVTITCSASQDISNYLNWYQQKPGKAPKLLIYYTSNLHSGVPSRFSGSGSGTDYTLTISSLQPEDFATYYCQQYRKLPWTFGQGTKLEIKR | 373 | 503 | 
CA8 humanised J1M2 (antibody, human IgG1, kappa, V domains shown, Humanised CA8, heavy chain J1 with light chain M2, human IgG1 kappa; also called CA8 J1M2) VH: QVQLVQSGAEVKKPGSSVKVSCKASGYTFTNYWMHWVRQAPGQGLEWMGATYRGHSDTYYNQKFKGRVTITADKSTSTAYMELSSLRSEDTAVYYCARGAIYNGYDVLDNWGQGTLVTVSS VL: DIQLTQSPSSLSASVGDRVTITCSASQDISNYLNWYQQKPGKAPELVIYYTSNLHSGVPSRFSGSGSGTDYTLTISSLQPEDFATYYCQQYRKLPWTFGQGTKLEIKR | 1140 | 303 | 
CA8 humanised J4M1 (antibody, human IgG1, kappa, V domains shown, Humanised CA8, heavy chain J4 with light chain M1, human IgG1 kappa; also called CA8 J4M1) VH: QVQLVQSGAEVKKPGSSVKVSCKGSGYTFTNYWMHWVRQAPGQGLEWIGATYRGHSDTYYNQKFKGRATLTADTSTSTAYMELSSLRSEDTAVYYCTRGAIYNGYDVLDNWGQGTLVTVSS VL: DIQMTQSPSSLSASVGDRVTITCSASQDISNYLNWYQQKPGKAPKLLIYYTSNLHSGVPSRFSGSGSGTDYTLTISSLQPEDFATYYCQQYRKLPWTFGQGTKLEIKR | 278 | 203 | 
CA8 humanised J1M0 (antibody, human IgG1, kappa, V domains shown, Humanised CA8, heavy chain J1 with light chain M0, human IgG1 kappa; also called CA8 J1M0) VH: QVQLVQSGAEVKKPGSSVKVSCKASGYTFTNYWMHWVRQAPGQGLEWMGATYRGHSDTYYNQKFKGRVTITADKSTSTAYMELSSLRSEDTAVYYCARGAIYNGYDVLDNWGQGTLVTVSS VL: DIQMTQSPSSLSASVGDRVTITCSASQDISNYLNWYQQKPGKAPKLLIYYTSNLHSGVPSRFSGSGSGTDFTLTISSLQPEDFATYYCQQYRKLPWTFGQGTKLEIKR | 2820 | 849 | 
CA8 humanised J3M1 (antibody, human IgG1, kappa, V domains shown, Humanised CA8, heavy chain J3 with light chain M1, human IgG1 kappa; also called CA8 J3M1) VH: QVQLVQSGAEVKKPGSSVKVSCKGSGYTFTNYWMHWVRQAPGQGLEWMGATYRGHSDTYYNQKFKGRVTITADTSTSTAYMELSSLRSEDTAVYYCTRGAIYNGYDVLDNWGQGTLVTVSS VL: DIQMTQSPSSLSASVGDRVTITCSASQDISNYLNWYQQKPGKAPKLLIYYTSNLHSGVPSRFSGSGSGTDYTLTISSLQPEDFATYYCQQYRKLPWTFGQGTKLEIKR | 438 | 196 | 
